Measured values reported in US20170051285A1, “COMPOSITIONS AND METHODS OF USING SAME FOR REDUCING RESISTANCE TO MOSQUITO LARVICIDES” (priority 2014, published 2017).

Test system: Ae. aegypti adult females, RJ strain
Assay: dsRNA treatment of larvae followed by pyrethroid (deltamethrin) adulticide bottle bioassay
Type: in vivo, Aedes aegypti
Conditions: soaking 0.1 μg/μL 24 hours plus 4 feedings with food-containing dsRNA, deltamethrin 0.5 μg/bottle
Procedure: Third instar larvae were treated (in groups of 100 larvae) in a final volume of 3 mL of dsRNA solution in autoclaved water (0.5 μg/μL for sodium channel (AAEL008297), PgP (AAEL010379) and Ago3 (AAEL007823) dsRNA, or 0.1 μg/μL for CYP9J26 (JF924909.1). The control group was kept in 3 ml sterile water only. Larvae were soaked in the dsRNA solutions for 24 hr at 27° C., and then transferred into new containers (300 larvae/1500 mL of chlorine-free tap water), which were also maintained at 27° C., and were provided 6 mg/100 mL lab dog/cat diet (Purina Mills) suspended in water as a source of food on a daily basis. As pupae developed, they were transferred to individual vials to await eclosion and sex sorting. For bioassays purpose only females up to five days old were used. See FIG. 11 for detailed explanation of this experiment.
After soaking in the dsRNA solutions for 24 hr at 27° C., the larvae were transferred into new containers (300 larvae/1500 mL of chlorine-free tap water), and were provided agarose cubes containing 300 μg of dsRNA once a day for a total of four days. The larvae were reared until adult stage. […]
Bottles were prepared following the Brogdon and McAllister (1998) protocol [Brogdon and McAllister (1998) Emerg Infect Dis 4:605-613]. […] At 15, 30 and 45 min intervals, the number of live and dead mosquitoes in each bottle was recorded. […]

B1: CYP9J26 dsRNA: dsRNA targeting Cytochrome p450 (CYP9J26) JF924909.1, SEQ ID NO: 203 (nucleic acid)
chain: CTTCAACGACTTCGTCCGATCAATTTACAACAAATATCCTGGAGTGAAGGTTTTCGGAATGTTCGAGACGATCACGCCGTTCTTCGTGATTCGCGATCCGGAGTTGATCAAGCAGATCGGCATCAAGGATTTCGATCACTTCGTTGACCACCGTCCGACGTTCGGACTGGACGATGAAACGGCGGAGCATCCGAAGGCGCTGTTCCGCAAGACGCTGTTCTCGATGACCGGTCAACGGTGGAAGGAGATGCGCGCTACGCTGAGTCCGGCTTTTACCGGCAGTAAGATGCGACAGATGTTCTCGCTGATGAGCGAATGCTGCGACGAAATGATGAAGCACTACCTGGACAAGGCGAAGGGCACGGGAAGGGTGGAAGTCGAAATGAAGGACTTGCTGAGTCGAATCACTATCAATGTGATTGCGTCGTGTGCTTTTGGAATCAAGGTGGAC
modifications: double stranded RNA
In the case of B1, the “susceptibility of adult mosquitoes to deltamethrin (FIG. 18)” value is reported as “more sensitive to deltamethrin during the first 15 minutes” and the “susceptibility of adult mosquitoes to deltamethrin (FIG. 18)” value (listed as CYP9J29 dsRNA) is reported as “affects the susceptibility”.
